In publication PMC10786891, “Massively parallel profiling of RNA-targeting CRISPR-Cas13d”:
Substitutions are numbered along the chain they refer to. In names and notes the source's numbering stands.

T1: EsCas13d, nuclease-dead (Eubacterium siraeum, UniProt B0MS50, R295A;H300A;R849A;H854A)
T1 sequence: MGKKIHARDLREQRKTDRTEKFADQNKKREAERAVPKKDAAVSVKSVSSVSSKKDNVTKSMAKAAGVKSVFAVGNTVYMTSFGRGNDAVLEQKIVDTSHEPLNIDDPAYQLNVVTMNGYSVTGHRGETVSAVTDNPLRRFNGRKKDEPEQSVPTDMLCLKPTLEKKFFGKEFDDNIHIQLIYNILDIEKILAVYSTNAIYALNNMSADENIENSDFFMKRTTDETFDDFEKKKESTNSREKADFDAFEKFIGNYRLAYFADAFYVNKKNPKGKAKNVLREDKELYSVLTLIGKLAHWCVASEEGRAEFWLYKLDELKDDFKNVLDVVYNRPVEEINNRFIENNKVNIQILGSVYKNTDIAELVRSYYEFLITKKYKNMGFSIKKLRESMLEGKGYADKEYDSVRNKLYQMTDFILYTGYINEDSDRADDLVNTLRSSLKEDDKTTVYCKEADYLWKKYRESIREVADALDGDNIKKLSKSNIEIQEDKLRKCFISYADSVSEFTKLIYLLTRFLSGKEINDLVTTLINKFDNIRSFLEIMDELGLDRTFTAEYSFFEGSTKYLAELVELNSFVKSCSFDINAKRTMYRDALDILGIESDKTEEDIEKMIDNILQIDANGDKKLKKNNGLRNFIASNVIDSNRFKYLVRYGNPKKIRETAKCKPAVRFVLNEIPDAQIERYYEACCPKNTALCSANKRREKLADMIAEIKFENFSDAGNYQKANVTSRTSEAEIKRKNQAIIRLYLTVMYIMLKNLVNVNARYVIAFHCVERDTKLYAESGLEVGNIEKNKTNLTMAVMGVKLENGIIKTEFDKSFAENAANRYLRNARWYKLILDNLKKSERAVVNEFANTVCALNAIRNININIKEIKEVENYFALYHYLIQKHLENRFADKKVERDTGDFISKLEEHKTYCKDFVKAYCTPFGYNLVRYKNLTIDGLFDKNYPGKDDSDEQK

B1: target 1 A16G,C22A (mixed)
RNA 1: CACCCGUGCAAAAAUGCAGGGGUCUAAAACUGAGCGGAUAACCUCUCUAUGG
RNA 2: GGGAAUGGAUCCACAUCUACGAAUUCGUAACAUAGGGAGGUUAUCCGCUCACCGAGAUCGGAAGAGCACACGU
B2: target 1 insU 3' of 20,insG 3' of 8 (mixed)
RNA 1: B1 RNA 1
RNA 2: GGGAAUGGAUCCACAUCUACGAAUUCGUACCAUUAGAGAGGUUAUGCCGCUCACCGAGAUCGGAAGAGCACACGU
B3: target 1 insG 3' of 21,insC 3' of 9 (mixed)
RNA 1: B1 RNA 1
RNA 2: B2 RNA 2 with A32G, U33A, U45C, G46U
B4: target 1 insG 3' of 14,insC 3' of 9 (mixed)
RNA 1: B1 RNA 1
RNA 2: B2 RNA 2 with U34A, A35G, G36A, A37G, G38A, A39G, U45C, G46U
B5: target 1 G17A,C21A (mixed)
RNA 1: B1 RNA 1
RNA 2: B1 RNA 2 with A30C, C31A, G35A, G36A
B6: target 1 insA 3' of 11,insG 3' of 8 (mixed)
RNA 1: B1 RNA 1
RNA 2: B2 RNA 2 with U34A, A35G, G36A, A37G, G38A, A39G, G41U, U42A
B7: target 1 insU 3' of 22,insU 3' of 7 (mixed)
RNA 1: B1 RNA 1
RNA 2: B2 RNA 2 with C31U, A32C, U33A, G46C, C47U
B8: target 1 C4A,C7G (mixed)
RNA 1: B1 RNA 1
RNA 2: B1 RNA 2 with A30C, G36A, C45G, C48A
B9: target 1 insC 3' of 20,insC 3' of 11 (mixed)
RNA 1: B1 RNA 1
RNA 2: B2 RNA 2 with U33C, U43C, A44U, U45A, G46U
B10: target 1 U8A,U11C (mixed)
RNA 1: B1 RNA 1
RNA 2: B1 RNA 2 with A30C, G36A, U41C, U44A
B11: target 1 insC 3' of 17,insU 3' of 7 (mixed)
RNA 1: B1 RNA 1
RNA 2: B2 RNA 2 with U34A, A35G, G36C, G46C, C47U
B12: target 1 C4U,C7A (mixed)
RNA 1: B1 RNA 1
RNA 2: B1 RNA 2 with A30C, G36A, C45A, C48U
B13: target 1 insG 3' of 19,insU 3' of 2 (mixed)
RNA 1: B1 RNA 1
RNA 2: B2 RNA 2 with U34G, G46C, C48G, G49C, C50U, U51C, C52U
B14: target 1 C7G,A16C (mixed)
RNA 1: B1 RNA 1
RNA 2: B1 RNA 2 with A30C, G36C, C45G
B15: target 1 insC 3' of 20,insG 3' of 16 (mixed)
RNA 1: B1 RNA 1
RNA 2: B2 RNA 2 with U33C, A39G, G40A, U42G, A44U, U45A, G46U
B16: target 1 insC 3' of 12,insG 3' of 8 (mixed)
RNA 1: B1 RNA 1
RNA 2: B2 RNA 2 with U34A, A35G, G36A, A37G, G38A, A39G, G41C
B17: target 1 insU 3' of 14,insG 3' of 2 (mixed)
RNA 1: B1 RNA 1
RNA 2: GGGAAUGGAUCCACAUCUACGAAUUCGUACCAUAGAGAUGGUUAUCCGCUCGACCGAGAUCGGAAGAGCACACGU
B18: target 1 insG 3' of 21 (mixed)
RNA 1: B1 RNA 1
RNA 2: GGGAAUGGAUCCACAUCUACGAAUUCGUACCGAUAGAGAGGUUAUCCGCUCACCGAGAUCGGAAGAGCACACGU
B19: target 1 insG 3' of 9,insU 3' of 4 (mixed)
RNA 1: B1 RNA 1
RNA 2: B17 RNA 2 with U39G, G41U, U43A, A44G, C51U, G52C
B20: target 1 insU 3' of 22,insU 3' of 12 (mixed)
RNA 1: B1 RNA 1
RNA 2: B2 RNA 2 with C31U, A32C, U33A, A44U, U45A, G46U
B21: target 1 U3A,G5U (mixed)
RNA 1: B1 RNA 1
RNA 2: B1 RNA 2 with A30C, G36A, G47U, U49A
B22: target 1 insU 3' of 15,insA 3' of 7 (mixed)
RNA 1: B1 RNA 1
RNA 2: B2 RNA 2 with U34A, A35G, G36A, A37G, G38U, G46C, C47A
B23: target 1 U3G,A9U (mixed)
RNA 1: B1 RNA 1
RNA 2: B1 RNA 2 with A30C, G36A, A43U, U49G
B24: target 1 U3G,C7G (mixed)
RNA 1: B1 RNA 1
RNA 2: B1 RNA 2 with A30C, G36A, C45G, U49G
B25: target 1 G15A,A16G (mixed)
RNA 1: B1 RNA 1
RNA 2: B1 RNA 2 with A30C, G37A
B26: target 1 insC 3' of 17,insA 3' of 10 (mixed)
RNA 1: B1 RNA 1
RNA 2: B2 RNA 2 with U34A, A35G, G36C, U45A, G46U
B27: target 1 insC 3' of 18,insU 3' of 4 (mixed)
RNA 1: B1 RNA 1
RNA 2: B2 RNA 2 with U34A, A35C, G46C, C48G, G49C, C50U
B28: target 1 A14G,U19C (mixed)
RNA 1: B1 RNA 1
RNA 2: B1 RNA 2 with A30C, U33C, G36A, A38G
B29: target 1 insC 3' of 14,insG 3' of 2 (mixed)
RNA 1: B1 RNA 1
RNA 2: B17 RNA 2 with U39C
B30: target 1 insU 3' of 20,insU 3' of 14 (mixed)
RNA 1: B1 RNA 1
RNA 2: B2 RNA 2 with G40U, U42G, A44U, U45A, G46U
B31: target 1 C6A,G12U (mixed)
RNA 1: B1 RNA 1
RNA 2: B1 RNA 2 with A30C, G36A, G40U, C46A
B32: target 1 A9C,G12U (mixed)
RNA 1: B1 RNA 1
RNA 2: B1 RNA 2 with A30C, G36A, G40U, A43C
B33: target 1 del8,del11 (mixed)
RNA 1: B1 RNA 1
RNA 2: GGGAAUGGAUCCACAUCUACGAAUUCGUACCAUAGAGAGGUACCGCUCACCGAGAUCGGAAGAGCACACGU

These binders were tested against T1, EsCas13d, nuclease-dead (assay: crRNA (strand 1, pre-loaded); Mg2+; 40 mM Tris-HCl pH 7.5, 150 mM NaCl, 6 mM MgCl2, 1 mM DTT, 0.1% Tween-20, 0.2 mg/ml BSA; 25 C; 10 min per concentration, then washed). Details: tags: His6-TwinStrep-SUMO cleaved; N-terminal SNAP kept (SNAP-Surface 488); label: 3' end held by stalled T7 RNA polymerase.

Question: How did the Kd turn out when B1 was run?
Answer: Its Kd is 0.051 ± 0.01 µM.

Question: How did the Kd turn out when B2 was run?
Answer: Its Kd is 0.0204 ± 0.0016 µM.

Question: B3 was tested. Which Kd did it give?
Answer: The Kd was 0.083 ± 0.016 µM.

Question: B4 was tested. Which Kd did it give?
Answer: The Kd was 0.0127 ± 0.0006 µM.

Question: With B5 as the binder, how does the Kd read?
Answer: The Kd was 0.056 ± 0.007 µM.

Question: How did the Kd turn out when B6 was run?
Answer: Its Kd is 0.0356 ± 0.0023 µM.

Question: B7 was tested. Which Kd did it give?
Answer: Its Kd is 0.043 ± 0.004 µM.

Question: How did the Kd turn out when B8 was run?
Answer: The Kd was 0.0096 ± 0.0004 µM.

Question: With B9 as the binder, how does the Kd read?
Answer: The Kd was 0.0112 ± 0.0011 µM.

Question: B10 was tested. Which Kd did it give?
Answer: The Kd was 0.0126 ± 0.0009 µM.

Question: B11 was tested. Which Kd did it give?
Answer: Its Kd is 0.057 ± 0.006 µM.

Question: For B12, which Kd is on record?
Answer: The Kd was 0.0112 ± 0.0008 µM.

Question: How did the Kd turn out when B13 was run?
Answer: Its Kd is 0.057 ± 0.013 µM.

Question: How did the Kd turn out when B14 was run?
Answer: Its Kd is 0.063 ± 0.006 µM.

Question: Which Kd does the source give for B15 here?
Answer: The Kd was 0.0118 ± 0.0009 µM.

Question: How did the Kd turn out when B16 was run?
Answer: The Kd was 0.015 ± 0.0006 µM.

Question: B17 was tested. Which Kd did it give?
Answer: The Kd was 0.044 ± 0.007 µM.

Question: With B18 as the binder, how does the Kd read?
Answer: Its Kd is 0.067 ± 0.01 µM.

Question: With B19 as the binder, how does the Kd read?
Answer: Its Kd is 0.0122 ± 0.0004 µM.

Question: B20 was tested. Which Kd did it give?
Answer: Its Kd is 0.0269 ± 0.0016 µM.

Question: With B21 as the binder, how does the Kd read?
Answer: Its Kd is 0.0144 ± 0.001 µM.

Question: B22 was tested. Which Kd did it give?
Answer: The Kd was 0.0082 ± 0.0006 µM.

Question: With B23 as the binder, how does the Kd read?
Answer: The Kd was 0.0075 ± 0.0007 µM.

Question: Which Kd does the source give for B24 here?
Answer: The Kd was 0.00604 ± 0.00033 µM.

Question: With B25 as the binder, how does the Kd read?
Answer: Its Kd is 0.051 ± 0.005 µM.

Question: With B26 as the binder, how does the Kd read?
Answer: Its Kd is 0.0432 ± 0.0034 µM.

Question: With B27 as the binder, how does the Kd read?
Answer: The Kd was 0.0258 ± 0.0018 µM.

Question: B28 was tested. Which Kd did it give?
Answer: The Kd was 0.063 ± 0.014 µM.

Question: B29 was tested. Which Kd did it give?
Answer: Its Kd is 0.062 ± 0.023 µM.

Question: For B30, which Kd is on record?
Answer: The Kd was 0.053 ± 0.021 µM.

Question: Which Kd does the source give for B31 here?
Answer: The Kd was 0.0107 ± 0.0005 µM.

Question: Which Kd does the source give for B32 here?
Answer: Its Kd is 0.0193 ± 0.0012 µM.

Question: With B33 as the binder, how does the Kd read?
Answer: Its Kd is 0.0257 ± 0.0017 µM.
